The values that follow come from publication doi:10.1101/2022.01.28.478199.

The target of this experiment is Hsp78TR-6xHis (Hsp78 E216Q/E614Q Walker B mutant with a C-terminal 6x polyhistidine-tag) (S. cerevisiae) (UniProt P33416). Kind of experiment: native gel or EMSA. A general note: A gel shift assay detects complexes by their altered migration in electrophoresis.

Several values for one entry are separate records, joined by “and”; a condition that tells them apart may be missing. Equal values may be shown once.

As for “Hsp78TR-6xHis (Hsp78 E216Q/E614Q Walker B mutant with a C-terminal 6x polyhistidine-tag) (from UniProt P33416 45-811) (natural protein)”, the stoichiometry N (in general, a count of units in the complex or per binding partner) is 3 and 6.
